# From patent US6232095
# Test system: Hmp1 (Ustilago maydis)
# Experiment: competition
substance,measurement,setting,value
G/C homoduplex 50-mer,binding signal,"4-fold more homoduplex needed than C/T competitor, exact homoduplex pair not stated",4 fold
cruciform DNA 61-mer,binding signal,cruciform more effective competitor than C/T mismatch,7.5 fold
G/A mismatch 50-mer,binding signal,equal to C/T competitor at 75 nM,1 fold
